Source: article PMC11230385

Biological target: T1, Aquaporin Z with a C-terminal Strep-tag II (AqpZ-STII) (Escherichia coli), P60844
T1 chain: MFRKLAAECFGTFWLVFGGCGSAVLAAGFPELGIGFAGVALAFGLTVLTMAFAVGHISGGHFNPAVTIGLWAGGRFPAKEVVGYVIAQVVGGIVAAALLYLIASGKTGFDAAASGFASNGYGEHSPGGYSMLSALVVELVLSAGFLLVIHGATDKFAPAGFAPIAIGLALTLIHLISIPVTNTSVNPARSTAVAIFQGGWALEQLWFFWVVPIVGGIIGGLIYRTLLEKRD
Assay: native MS
Settings: remark: other sources report otherwise

B1: Aquaporin Z with a C-terminal Strep-tag II (AqpZ-STII), P60844 1-231 (natural protein)
chain: T1 chain
Question: How did the stoichiometry N turn out when B1 was run?
Answer: The stoichiometry N was 4.
